The target of the assay is T1, recombinant human PDGF receptor α extracellular domain (PDGF sRα) (human, UniProt P16234 24-528, biotin (biotin-X-NHS) in the direct-binding ELISA on PDGF-coated wells; not said to be biotinylated in the blocking ELISA).
T1 construct: PDGF receptor α, human, extracellular domain; also called soluble PDGF receptor α; sRα-bio; source: bought: R&D Systems
In words: ELISA; serially diluted biotinylated PDGF sRα added to PDGF-coated wells; detected with streptavidin-HRP. The settings on record: both partners purified.

T1 sequence (P16234 24-528): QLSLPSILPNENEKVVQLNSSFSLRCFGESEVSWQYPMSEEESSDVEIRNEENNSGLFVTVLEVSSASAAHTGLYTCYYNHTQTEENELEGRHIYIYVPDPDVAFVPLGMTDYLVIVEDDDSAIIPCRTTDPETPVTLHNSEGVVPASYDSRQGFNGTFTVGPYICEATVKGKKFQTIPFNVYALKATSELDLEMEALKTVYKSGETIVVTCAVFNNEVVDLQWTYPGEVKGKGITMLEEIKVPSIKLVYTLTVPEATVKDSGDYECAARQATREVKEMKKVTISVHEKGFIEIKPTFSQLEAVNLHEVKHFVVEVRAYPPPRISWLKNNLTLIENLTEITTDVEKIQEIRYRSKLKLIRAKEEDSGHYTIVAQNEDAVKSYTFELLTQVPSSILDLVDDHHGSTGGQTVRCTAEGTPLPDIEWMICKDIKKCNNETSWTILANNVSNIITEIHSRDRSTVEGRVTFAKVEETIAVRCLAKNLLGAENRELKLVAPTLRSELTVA

B1: recombinant human PDGF-BB (ligand, UniProt P01127 82-190, looked up)
chain: SLGSLTIAEPAMIAECKTRTEVFEISRRLIDRTNANFLVWPPCVEVQRCSGCCNNRNVQCRPTQVQLRPVQVRKIEIVRKKPIFKKATVTLEDHLACKCETVAAARPVT
notes: PDGF-B chain, human; homodimer; source: bought: R&D Systems
For B1, the binding result is reported as “binds”.
